Test results: the supplement of paper PMC9732359
± gives the uncertainty stated by the source.

Assay: protein stability index of a GFP-peptide fusion (yeast GPS) (PSI 1-4); higher = more stable; sorted into four equal gates, so the index is relative within each strain
In short: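 The protein stability index of a peptide was calculated by multiplying its read frequency in each gate by that gate's number and adding the products. The peptides were tiled 17-residue stretches of yeast proteins, fused downstream of GFP on a Cherry-expressing plasmid and carried in yeast as a pooled library. Mid-log cultures in leucine-free medium were sorted into four equal gates by GFP/Cherry ratio, and each gate's plasmids were PCR-amplified and Illumina-sequenced.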

| Sequence | protein stability index (doa10∆) | protein stability index (pdr5∆) | protein stability index (san1∆) | protein stability index (ubr1∆) |
| --- | --- | --- | --- | --- |
| NFARQLLFNNDFPLLKV [RRP40] | 2.91 ± 0.05 | 2.02 ± 0.049 | 2.06 ± 0.08 | 2.12 ± 0.037 |
| IAQSKKKNNKIKESSKK [SRP21] | 3.09 ± 0.1 | 2.96 ± 0.087 | 3.01 ± 0.072 | 3.16 ± 0.063 |
| RYSRQFINNVLSNPSNQ [GRR1] | 2.28 ± 0.08 | 2.45 ± 0.082 | 1.91 ± 0.1 | 2.07 ± 0.076 |
| FMKSVIRSREAFSYEQA [DIS3] | 2.28 ± 0.11 | 2.73 ± 0.082 | 2 ± 0.13 | 2.71 ± 0.12 |
| PAKSASARGSYLRVSFK [RPL17A] | 3.2 ± 0.046 | 3.27 ± 0.051 | 3.091 ± 0.029 | 3.14 ± 0.041 |
| KVFVPPKSKSLPNEMSQ [RPO31] | 3.1 ± 0.13 | 3.14 ± 0.12 | 3.09 ± 0.16 | 2.87 ± 0.13 |
| TKFFDDAKSTPLRLRLY [RPN9] | 3.26 ± 0.24 | 3.02 ± 0.15 |  | 2.89 ± 0.17 |
| YLAKELNLTGPKVPEDI [RPN1] | 3.26 ± 0.23 | 3.24 ± 0.27 | 2.38 ± 0.24 |  |
| YRVTLESILQMNQGEGE [RPC34] | 2.94 ± 0.19 | 3.16 ± 0.092 | 3.46 ± 0.26 | 2.97 ± 0.12 |
| LKALSHHYNPKTKKLNL [BRR2] | 2.46 ± 0.088 | 2.4 ± 0.086 | 2.33 ± 0.11 | 2.69 ± 0.053 |
| RLNNVFVIGEQGKPYIS [RPS4A] | 2.66 ± 0.11 | 3.02 ± 0.094 | 3.1 ± 0.11 | 2.12 ± 0.057 |
| LEKIHSIEVQSLPEFFT [SWI3] | 2.69 ± 0.074 | 2.53 ± 0.073 | 2.43 ± 0.12 | 2.52 ± 0.069 |
| KPNQTIMVLDASIGQAA [SRP54] | 2.44 ± 0.095 | 2.65 ± 0.075 | 2.69 ± 0.07 | 2.64 ± 0.049 |
| MFTYSQETQHGNITRGL [RPN2] | 3.28 ± 0.08 | 3.12 ± 0.12 | 3.13 ± 0.06 | 3.21 ± 0.046 |
| VFMLDTKRLGTPESVKP [RGR1] | 2.55 ± 0.075 | 2.64 ± 0.091 | 2.54 ± 0.11 | 2.8 ± 0.086 |
| SGQTFAYGVLDSNYKWD [PRE2] | 2.39 ± 0.075 | 2.76 ± 0.098 | 1.85 ± 0.14 | 2.7 ± 0.11 |
| LGNVIVPNILSLDMNSM [NUT1] | 2.16 ± 0.06 | 2.17 ± 0.058 | 2.04 ± 0.093 | 2.27 ± 0.051 |
| LLKYSNETKKRNFLETV [RPL1A] | 3 ± 0.25 | 2.72 ± 0.23 |  |  |
| SAYEASMVYSNVGELIE [RRP4] | 1.64 ± 0.057 | 2.22 ± 0.054 | 2.32 ± 0.058 | 1.85 ± 0.048 |
| AAPLLALLRENQDSVKT [RPN2] | 2.55 ± 0.18 | 3.23 ± 0.1 | 3 ± 0.15 | 2.6 ± 0.11 |
| DILLCYQKLFSQFINDH [SRB8] | 2.37 ± 0.034 | 2.64 ± 0.037 | 2.64 ± 0.042 | 1.84 ± 0.034 |
| KLQENRTLLTEEIEPKL [SMC2] | 2.91 ± 0.2 | 3.29 ± 0.18 | 2.76 ± 0.15 | 3.19 ± 0.14 |
| KENKKRKNFKMGPLYQN [IRR1] | 1.33 ± 0.046 | 1.99 ± 0.08 | 2.05 ± 0.078 | 2.13 ± 0.059 |
| SLNEKNALHTERLHELK [SMC1] | 3.36 ± 0.061 | 3.11 ± 0.065 | 2.89 ± 0.067 | 2.81 ± 0.054 |
| KKDRATGDADEPELRVL [RPO21] | 3.53 ± 0.11 | 3.48 ± 0.074 | 3.39 ± 0.06 | 3.43 ± 0.046 |
| KEDEPVVARRSNSANVS [ITC1] | 3.07 ± 0.064 | 3.06 ± 0.068 | 2.57 ± 0.048 | 2.4 ± 0.05 |

| Sequence | protein stability index (doa10∆) | protein stability index (pdr5∆) | protein stability index (san1∆) | protein stability index (ubr1∆) |
| --- | --- | --- | --- | --- |
| KDGEIMLWNLAAKKAMY [ASC1] | 2.55 ± 0.071 | 1.87 ± 0.05 | 2.26 ± 0.067 | 1.76 ± 0.097 |
| PDFEKLLPFVKGNVGFV [RPP0] |  |  |  | 1.89 ± 0.19 |
| THEQWSNIQRNVLFLRL [SRP72] | 2.67 ± 0.062 | 2.38 ± 0.062 | 1.96 ± 0.077 | 2.45 ± 0.041 |
| AIRADPAFKPTEKKFTK [RPL5] | 3.11 ± 0.26 | 3.15 ± 0.3 | 3.18 ± 0.2 | 3.2 ± 0.24 |
| ISTAKAWGALITTFVKR [YML103C/NUP188] | 1.82 ± 0.051 | 2.22 ± 0.051 | 1.64 ± 0.063 | 1.66 ± 0.058 |
| MREITETIAEAKKKVLD [RPO21] | 3.5 ± 0.13 | 3.42 ± 0.09 | 3.42 ± 0.037 | 3.24 ± 0.091 |
| ITARSAFVEFGASVIAG [SWP82] | 1.93 ± 0.11 | 2.53 ± 0.085 | 1.86 ± 0.11 | 2.21 ± 0.054 |
| MDHEEARRKHVSGKILG [RPS22A] | 2.83 ± 0.28 | 2.65 ± 0.24 | 2.87 ± 0.24 | 3.02 ± 0.12 |
| LEIASSIDCLLILILVI [SWI1] | 1.98 ± 0.07 | 2.24 ± 0.046 | 2.34 ± 0.074 | 1.71 ± 0.035 |
| INTLNGGSSDTADKIRI [GAL11] | 2.34 ± 0.098 | 2.02 ± 0.088 | 1.27 ± 0.094 | 1.4 ± 0.066 |
| YGPPGTGKTLLARACAA [RPT5] | 2.5 ± 0.13 | 2.53 ± 0.081 | 2.29 ± 0.18 |  |
| PFTDRSVVRGNTFKVLS [COB] | 2.25 ± 0.082 | 2.56 ± 0.18 | 2.52 ± 0.091 | 2.37 ± 0.12 |
| KIGPLGLSPKKVGEDIA [RPL12A] | 3.3 ± 0.16 | 3.2 ± 0.18 | 3.27 ± 0.2 | 3.38 ± 0.24 |
| GKICLILTRLNGILPDD [SSN2] | 3.12 ± 0.21 |  |  | 3.5 ± 0.15 |
| LIKNGKKVTAFVPNDGC [RPS23A] | 3.03 ± 0.11 | 3.31 ± 0.061 | 3.45 ± 0.039 | 3.38 ± 0.054 |
| TRFEVELEFIQSLANIQ [SOH1] | 2.15 ± 0.082 | 2.29 ± 0.061 | 2.14 ± 0.1 | 2.5 ± 0.058 |
| RNSTRSSGFNEDIVGAL [REC8] |  | 3.58 ± 0.21 |  |  |
| EILNECHDELKALPMLE [MED4] | 2.52 ± 0.11 | 2.95 ± 0.16 | 2.59 ± 0.083 | 3.09 ± 0.088 |
| NKSFIVDQGQIYRDRST [ITC1] | 3.1 ± 0.11 | 3.35 ± 0.12 | 3.32 ± 0.064 | 3.32 ± 0.052 |
| GKKSSSSTKDYLTPPHE [RET1] | 3.72 ± 0.27 |  | 3.52 ± 0.22 | 2.85 ± 0.18 |
| INQINEAHPTKVKNFGV [RPL20A] | 3.04 ± 0.074 | 2.93 ± 0.049 | 3.117 ± 0.031 | 2.85 ± 0.038 |
| VLTNIEVYRTSLNTKKN [SMC3] | 2.61 ± 0.17 | 3.08 ± 0.19 |  | 2.85 ± 0.12 |
| KAAFIRVNGSEFVHKYL [RPT3] | 2.22 ± 0.062 | 2.46 ± 0.073 | 2.15 ± 0.087 | 2.77 ± 0.08 |
| VKKASGEIVSINQINEA [RPL20A] | 2.89 ± 0.1 | 2.82 ± 0.092 | 2.81 ± 0.062 | 2.79 ± 0.066 |
| SNGEFIPHIFYSLHQIR [CSE2] | 2.02 ± 0.07 | 2.1 ± 0.054 | 2.12 ± 0.072 | 2.34 ± 0.057 |
| KHWGGGILGNKAQAKMD [RPL8A] | 3.39 ± 0.13 | 3.47 ± 0.11 | 3.53 ± 0.066 | 3.35 ± 0.087 |
